This note sets out measurements from patent US20230052369A1 (Zymeworks, published 2023).

One may read the Kd as the concentration at which binding is half-saturated.

For test [1], the target named is T1, recombinant His-tagged human FRα (human, UniProt P15328 25-234).
T1 construct: Bought protein; also called hFRα; FRα-HIS
Put plainly: BLI, purified, average n=2.
Method: (§1) The assay buffer used was KB buffer (kinetics buffer, composed of PBS pH 7.4, 0.1% BSA, 0.02% Tween 20, 0.05% sodium azide) supplemented with 0.06% Tween 20. The experiment was conducted at 25° C. with a shake speed of 1000 rpm.
(§2) Data analysis was performed using the Data analysis software 9.0′ (ForteBio). The reference-subtracted binding curves were globally fitted to the 1:1 interaction model to generate the binding kinetic parameters kₒₙ, koff, and the dissociation constant KD.

For test [2], the target named is T1, recombinant His-tagged human FRα. In words: BLI, supernatant, n=1.
Method: as §1, §2
Test [3] shares this target. In words: BLI, n=2. (In general: In BLI a coated tip is dipped into the sample, and binding shifts an interference pattern.)
Method: as §1, §2
All parameters remained the same except for the dissociation phase which was recorded for 1500 s.

T1 sequence (P15328 25-234 limits assumed): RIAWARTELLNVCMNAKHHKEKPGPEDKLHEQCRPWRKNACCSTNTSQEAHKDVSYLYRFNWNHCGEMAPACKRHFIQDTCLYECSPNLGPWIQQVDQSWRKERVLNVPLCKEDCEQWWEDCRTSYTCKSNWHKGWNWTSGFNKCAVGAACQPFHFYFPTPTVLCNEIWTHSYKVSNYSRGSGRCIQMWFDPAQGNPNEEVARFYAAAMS

B1: v23799 (antibody, human IgG1, kappa)
heavy: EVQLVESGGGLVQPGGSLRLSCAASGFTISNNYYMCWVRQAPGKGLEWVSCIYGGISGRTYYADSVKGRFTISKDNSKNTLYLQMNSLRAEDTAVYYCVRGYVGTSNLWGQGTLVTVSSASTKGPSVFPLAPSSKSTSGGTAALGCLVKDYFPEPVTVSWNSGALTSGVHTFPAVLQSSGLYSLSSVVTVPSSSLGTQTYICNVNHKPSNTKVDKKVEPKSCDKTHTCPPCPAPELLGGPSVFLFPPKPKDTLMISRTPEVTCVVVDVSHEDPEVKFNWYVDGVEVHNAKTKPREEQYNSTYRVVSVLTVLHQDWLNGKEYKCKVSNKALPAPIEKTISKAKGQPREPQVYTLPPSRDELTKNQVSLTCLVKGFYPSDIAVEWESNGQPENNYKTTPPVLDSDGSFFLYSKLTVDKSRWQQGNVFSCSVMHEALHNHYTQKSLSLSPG
light: DIQMTQSPSSLSASVGDRVTITCQASQSIYSSLAWYQQKPGKAPKLLIYDASHLASGVPSRFSGSGSGTDFTLTISSVQPEDFATYYCQGGWYSSAATYVPNTFGGGTKVEVKRTVAAPSVFIFPPSDEQLKSGTASVVCLLNNFYPREAKVQWKVDNALQSGNSQESVTEQDSKDSTYSLSSTLTLSKADYEKHKVYACEVTHQGLSSPVTKSFNRGEC
notes: also called humanized 8K22 H1L2
B1: the Kd in test [1] came out at 4.8 nM; in test [2], 13.8 nM.

B2: v23802 (antibody, human IgG1, kappa)
heavy: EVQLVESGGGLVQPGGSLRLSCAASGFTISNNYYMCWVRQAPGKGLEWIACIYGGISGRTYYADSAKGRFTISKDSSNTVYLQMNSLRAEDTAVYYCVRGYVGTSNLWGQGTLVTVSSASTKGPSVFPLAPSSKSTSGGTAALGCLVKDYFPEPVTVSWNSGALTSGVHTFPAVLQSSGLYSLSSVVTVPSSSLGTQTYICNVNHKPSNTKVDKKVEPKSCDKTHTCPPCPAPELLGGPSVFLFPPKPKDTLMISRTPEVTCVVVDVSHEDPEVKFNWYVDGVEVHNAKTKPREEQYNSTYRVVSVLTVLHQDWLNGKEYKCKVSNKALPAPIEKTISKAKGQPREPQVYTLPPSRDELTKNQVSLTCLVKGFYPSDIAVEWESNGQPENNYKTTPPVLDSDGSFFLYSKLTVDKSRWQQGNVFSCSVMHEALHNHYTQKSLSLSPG
light: DIQMTQSPSSLSASVGDRVTITCQASQSIYSSLAWYQQKPGKAPKLLIYDASHLASGVPSRFSGSGSGTDFTLTISSVQPEDFATYYCQGGWYSSAATYVPNTFGGGTKVEVKRTVAAPSVFIFPPSDEQLKSGTASVVCLLNNFYPREAKVQWKVDNALQSGNSQESVTEQDSKDSTYSLSSTLTLSKADYEKHKVYACEVTHQGLSSPVTKSFNRGEC
notes: also called humanized 8K22 H4L2
In the case of B2, the values for the Kd in test [1] and in test [2] were 8.53 nM and 17.9 nM, respectively.

B3: v23814 (antibody, human IgG1, kappa, V domains shown)
VH: EVQLVESGGGLVQPGGSLRLSCAASGFTISNNYYMCWVRQAPGKGLEWVSCIYGGISGRTYYADSVKGRFTISKDNSKNTLYLQMNSLRAEDTAVYYCVRGYVGTSNLWGQGTLVTVSS
VL: DIQMTQSPSSLSASVGDRVTITCQASQSIYSSLAWYQQKPGKAPKLLIYDASHLASGVPSRFSGSRYGTDFTLTISSVQPEDAATYYCQGGWYSSAATYVPNTFGGGTKVEVKR
notes: also called humanized 8K22 H1L5
For B3, the Kd in test [1] stood at 6.31 nM; in test [2], 10.1 nM.

B4: v23812 (antibody, human IgG1, kappa, V domains shown)
VH: EVQLVESGGGLVQPGGSLRLSCAASGFTISNNYYMCWVRQAPGKGLEWIACIYGGISGRTYYADSAKGRFTISKDSSNTVYLQMNSLRAEDTAVYYCVRGYVGTSNLWGQGTLVTVSS
VL: DIQMTQSPSSLSASVGDRVTITCQASQSIYSSLAWYQQKPGKAPKLLIYDASHLASGVPSRFSGSGSGTDFTLTISSVQPEDAATYYCQGGWYSSAATYVPNTFGGGTKVEVKR
notes: also called humanized 8K22 H4L4
On to B4, for which the Kd in test [1] turned out to be 8.74 nM; in test [2], 19.5 nM.

B5: v23801 (antibody, human IgG1, kappa)
heavy: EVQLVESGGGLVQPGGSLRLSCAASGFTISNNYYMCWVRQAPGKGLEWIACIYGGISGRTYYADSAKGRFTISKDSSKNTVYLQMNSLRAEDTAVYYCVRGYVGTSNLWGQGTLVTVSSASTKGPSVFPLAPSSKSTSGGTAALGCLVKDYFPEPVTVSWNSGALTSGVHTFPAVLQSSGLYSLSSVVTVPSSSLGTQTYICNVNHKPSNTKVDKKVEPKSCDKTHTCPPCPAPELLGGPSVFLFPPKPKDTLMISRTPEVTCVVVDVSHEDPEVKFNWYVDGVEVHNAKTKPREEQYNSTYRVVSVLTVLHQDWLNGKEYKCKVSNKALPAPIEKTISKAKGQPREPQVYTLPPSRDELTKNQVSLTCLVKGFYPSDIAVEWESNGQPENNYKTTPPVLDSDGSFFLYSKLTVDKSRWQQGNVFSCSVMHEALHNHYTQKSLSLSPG
light: DIQMTQSPSSLSASVGDRVTITCQASQSIYSSLAWYQQKPGKAPKLLIYDASHLASGVPSRFSGSGSGTDFTLTISSVQPEDFATYYCQGGWYSSAATYVPNTFGGGTKVEVKRTVAAPSVFIFPPSDEQLKSGTASVVCLLNNFYPREAKVQWKVDNALQSGNSQESVTEQDSKDSTYSLSSTLTLSKADYEKHKVYACEVTHQGLSSPVTKSFNRGEC
notes: also called humanized 8K22 H3L2
In the case of B5, the Kd in test [1] is 8.66 nM; in test [2], 22.1 nM.

B6: v23816 (antibody, human IgG1, kappa, V domains shown)
VH: EVQLVESGGGLVQPGGSLRLSCAASGFTISNNYYMCWVRQAPGKGLEWIACIYGGISGRTYYADSAKGRFTISKDSSKNTVYLQMNSLRAEDTAVYYCVRGYVGTSNLWGQGTLVTVSS
VL: DIQMTQSPSSLSASVGDRVTITCQASQSIYSSLAWYQQKPGKAPKLLIYDASHLASGVPSRFSGSRYGTDFTLTISSVQPEDAATYYCQGGWYSSAATYVPNTFGGGTKVEVKR
notes: also called humanized 8K22 H3L5
In the case of B6, the Kd in test [1] was 10.6 nM; in test [2], 10.4 nM.

B7: v23806 (antibody, human IgG1, kappa, V domains shown)
VH: EVQLVESGGGLVQPGGSLRLSCAASGFTISNNYYMCWVRQAPGKGLEWIACIYGGISGRTYYADSAKGRFTISKDSSKNTVYLQMNSLRAEDTAVYYCVRGYVGTSNLWGQGTLVTVSS
VL: DIQMTQSPSSLSASVGDRVTITCQASQSIYSSLAWYQQKPGKAPKLLIYDASHLASGVPSRFSGSRYGTDFTLTISSVQPEDFATYYCQGGWYSSAATYVPNTFGGGTKVEVKR
notes: also called humanized 8K22 H3L3
For B7, the Kd in test [1] was 7 nM; in test [2], 11.5 nM.

B8: v23808 (antibody, human IgG1, kappa, V domains shown)
VH: EVQLVESGGGLVQPGGSLRLSCAASGFTISNNYYMCWVRQAPGKGLEWIACIYGGISGRTYYADWAKGRFTISKDSSKNTVYLQMNSLRAEDTAVYYCVRGYVGTSNLWGQGTLVTVSS
VL: DIQMTQSPSSLSASVGDRVTITCQASQSIYSSLAWYQQKPGKAPKLLIYDASHLASGVPSRFSGSRYGTDFTLTISSVQPEDFATYYCQGGWYSSAATYVPNTFGGGTKVEVKR
notes: also called humanized 8K22 H5L3
Regarding B8, the Kd in test [1] is 13.1 nM; in test [2], 19.3 nM.

B9: v23818 (antibody, human IgG1, kappa, V domains shown)
VH: EVQLVESGGGLVQPGGSLRLSCAASGFTISNNYYMCWVRQAPGKGLEWIACIYGGISGRTYYADWAKGRFTISKDSSKNTVYLQMNSLRAEDTAVYYCVRGYVGTSNLWGQGTLVTVSS
VL: DIQMTQSPSSLSASVGDRVTITCQASQSIYSSLAWYQQKPGKAPKLLIYDASHLASGVPSRFSGSRYGTDFTLTISSVQPEDAATYYCQGGWYSSAATYVPNTFGGGTKVEVKR
notes: also called humanized 8K22 H5L5
For B9, the Kd in test [1] came to 6.13 nM; in test [2], 17.4 nM.

B10: v23817 (antibody, human IgG1, kappa, V domains shown)
VH: EVQLVESGGGLVQPGGSLRLSCAASGFTISNNYYMCWVRQAPGKGLEWIACIYGGISGRTYYADSAKGRFTISKDSSNTVYLQMNSLRAEDTAVYYCVRGYVGTSNLWGQGTLVTVSS
VL: DIQMTQSPSSLSASVGDRVTITCQASQSIYSSLAWYQQKPGKAPKLLIYDASHLASGVPSRFSGSRYGTDFTLTISSVQPEDAATYYCQGGWYSSAATYVPNTFGGGTKVEVKR
notes: also called humanized 8K22 H4L5
As to B10, the Kd in test [1] came out at 6.41 nM; in test [2] it was 9.5 nM.

B11: v23804 (antibody, human IgG1, kappa, V domains shown)
VH: EVQLVESGGGLVQPGGSLRLSCAASGFTISNNYYMCWVRQAPGKGLEWVSCIYGGISGRTYYADSVKGRFTISKDNSKNTLYLQMNSLRAEDTAVYYCVRGYVGTSNLWGQGTLVTVSS
VL: DIQMTQSPSSLSASVGDRVTITCQASQSIYSSLAWYQQKPGKAPKLLIYDASHLASGVPSRFSGSRYGTDFTLTISSVQPEDFATYYCQGGWYSSAATYVPNTFGGGTKVEVKR
notes: also called humanized 8K22 H1L3
For the molecule B11, the Kd in test [1] is 4.66 nM; in test [2], 9.29 nM.

B12: v23815 (antibody, human IgG1, kappa, V domains shown)
VH: EVQLVESGGGLVQPGGSLRLSCAASGFTISNNYYMCWVRQAPGKGLEWIACIYGGISGRTYYADSAKGRFTISKDNSKNTVYLQMNSLRAEDTAVYYCVRGYVGTSNLWGQGTLVTVSS
VL: DIQMTQSPSSLSASVGDRVTITCQASQSIYSSLAWYQQKPGKAPKLLIYDASHLASGVPSRFSGSRYGTDFTLTISSVQPEDAATYYCQGGWYSSAATYVPNTFGGGTKVEVKR
notes: also called humanized 8K22 H2L5
Consider B12, for which the Kd was determined as 16.5 nM in test [1] and 16.7 nM in test [2].

B13: v23807 (antibody, human IgG1, kappa, V domains shown)
VH: EVQLVESGGGLVQPGGSLRLSCAASGFTISNNYYMCWVRQAPGKGLEWIACIYGGISGRTYYADSAKGRFTISKDSSNTVYLQMNSLRAEDTAVYYCVRGYVGTSNLWGQGTLVTVSS
VL: DIQMTQSPSSLSASVGDRVTITCQASQSIYSSLAWYQQKPGKAPKLLIYDASHLASGVPSRFSGSRYGTDFTLTISSVQPEDFATYYCQGGWYSSAATYVPNTFGGGTKVEVKR
notes: also called humanized 8K22 H4L3
In the case of B13, the Kd in test [1] is 7.07 nM; in test [2], 10.9 nM.

B14: v23811 (antibody, human IgG1, kappa, V domains shown)
VH: EVQLVESGGGLVQPGGSLRLSCAASGFTISNNYYMCWVRQAPGKGLEWIACIYGGISGRTYYADSAKGRFTISKDSSKNTVYLQMNSLRAEDTAVYYCVRGYVGTSNLWGQGTLVTVSS
VL: DIQMTQSPSSLSASVGDRVTITCQASQSIYSSLAWYQQKPGKAPKLLIYDASHLASGVPSRFSGSGSGTDFTLTISSVQPEDAATYYCQGGWYSSAATYVPNTFGGGTKVEVKR
notes: also called humanized 8K22 H3L4
For the molecule B14, the Kd was found to be 8.83 nM in test [1] and 22.5 nM in test [2].

B15: v23805 (antibody, human IgG1, kappa, V domains shown)
VH: EVQLVESGGGLVQPGGSLRLSCAASGFTISNNYYMCWVRQAPGKGLEWIACIYGGISGRTYYADSAKGRFTISKDNSKNTVYLQMNSLRAEDTAVYYCVRGYVGTSNLWGQGTLVTVSS
VL: DIQMTQSPSSLSASVGDRVTITCQASQSIYSSLAWYQQKPGKAPKLLIYDASHLASGVPSRFSGSRYGTDFTLTISSVQPEDFATYYCQGGWYSSAATYVPNTFGGGTKVEVKR
notes: also called humanized 8K22 H2L3
For B15, the Kd stood at 10.2 nM in test [1] and 16.2 nM in test [2].

B16: v23797 (antibody, human IgG1, kappa)
heavy: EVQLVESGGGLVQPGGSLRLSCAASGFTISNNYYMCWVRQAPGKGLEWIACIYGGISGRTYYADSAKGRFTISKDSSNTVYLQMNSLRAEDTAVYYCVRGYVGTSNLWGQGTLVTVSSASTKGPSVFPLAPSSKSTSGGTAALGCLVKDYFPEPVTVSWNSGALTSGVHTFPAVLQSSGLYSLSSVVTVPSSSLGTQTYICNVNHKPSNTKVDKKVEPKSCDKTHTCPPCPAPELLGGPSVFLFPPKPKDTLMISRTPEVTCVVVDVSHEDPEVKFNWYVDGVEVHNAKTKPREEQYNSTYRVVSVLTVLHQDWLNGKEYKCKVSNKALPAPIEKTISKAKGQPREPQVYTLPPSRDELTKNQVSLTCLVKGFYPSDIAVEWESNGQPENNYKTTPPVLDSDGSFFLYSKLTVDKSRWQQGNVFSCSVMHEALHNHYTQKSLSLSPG
light: DIQMTQSPSSLSASVGDRVTITCQASQSIYSSLAWYQQKPGKAPKLLIYDASHLASGVPSRFSGSGSGTDFTLTISSVQPEDFATYYCQGGWYSSAATYVPNTFGGGTKVEIKRTVAAPSVFIFPPSDEQLKSGTASVVCLLNNFYPREAKVQWKVDNALQSGNSQESVTEQDSKDSTYSLSSTLTLSKADYEKHKVYACEVTHQGLSSPVTKSFNRGEC
notes: also called humanized 8K22 H4L1
With B16, the Kd in test [1] was 11.9 nM; in test [2] it was 14.9 nM.

B17: v23809 (antibody, human IgG1, kappa, V domains shown)
VH: EVQLVESGGGLVQPGGSLRLSCAASGFTISNNYYMCWVRQAPGKGLEWVSCIYGGISGRTYYADSVKGRFTISKDNSKNTLYLQMNSLRAEDTAVYYCVRGYVGTSNLWGQGTLVTVSS
VL: DIQMTQSPSSLSASVGDRVTITCQASQSIYSSLAWYQQKPGKAPKLLIYDASHLASGVPSRFSGSGSGTDFTLTISSVQPEDAATYYCQGGWYSSAATYVPNTFGGGTKVEVKR
notes: also called humanized 8K22 H1L4
As to B17, the Kd in test [1] turned out to be 9.03 nM; in test [2], 12.1 nM.

B18: v29676 (scFv)
scFv: DIQMTQSPSSLSASVGDRVTITCQASQSIYSSLAWYQQKPGKAPKLLIYDASHLASGVPSRFSGSRYGTDFTLTISSVQPEDFATYYCQGGWYSSAATYVPNTFGGGTKVEVKGGGGSGGGGSGGGGSEVQLVESGGGLVQPGGSLRLSCAASGFTISNNYYMCWVRQAPGKGLEWIACIYGGISGRTYYADSAKGRFTISKDSSNTVYLQMNSLRAEDTAVYYCVRGYVGTSNLWGQGTLVTVSS
notes: One-armed: scFv fused by an Ala-Ala linker to the N-terminus (hinge) of Het FcA, paired with Het FcB Fc; also called N-term VL-(short)-VH
For the molecule B18, the Kd in test [3] is 3.9 nM.

B19: v29675 (antibody, V domains shown)
VH: EVQLVESGGGLVQPGGSLRLSCAASGFTISNNYYMCWVRQAPGKGLEWIACIYGGISGRTYYADSAKGRFTISKDSSNTVYLQMNSLRAEDTAVYYCVRGYVGTSNLWGQGTLVTVSS
VL: DIQMTQSPSSLSASVGDRVTITCQASQSIYSSLAWYQQKPGKAPKLLIYDASHLASGVPSRFSGSRYGTDFTLTISSVQPEDFATYYCQGGWYSSAATYVPNTFGGGTKVEVK
notes: One-armed antibody, humanized 8K22 (H4L3 of v23807) Fab on a heterodimeric IgG1 Fc; also called N-term Parent Fab; Parent Fab antibody
As to B19, the dissociation constant Kd in test [3] turned out to be 4.1 nM.
